The data set deals with DNA polymerase alpha catalytic core (p180 core) (human, UniProt P09884 335-1257). Kind of data set: X-ray crystallography.

This is an account of results in article PMC4267640.

DNA polymerase alpha catalytic core (p180 core), sequence (P09884 335-1257): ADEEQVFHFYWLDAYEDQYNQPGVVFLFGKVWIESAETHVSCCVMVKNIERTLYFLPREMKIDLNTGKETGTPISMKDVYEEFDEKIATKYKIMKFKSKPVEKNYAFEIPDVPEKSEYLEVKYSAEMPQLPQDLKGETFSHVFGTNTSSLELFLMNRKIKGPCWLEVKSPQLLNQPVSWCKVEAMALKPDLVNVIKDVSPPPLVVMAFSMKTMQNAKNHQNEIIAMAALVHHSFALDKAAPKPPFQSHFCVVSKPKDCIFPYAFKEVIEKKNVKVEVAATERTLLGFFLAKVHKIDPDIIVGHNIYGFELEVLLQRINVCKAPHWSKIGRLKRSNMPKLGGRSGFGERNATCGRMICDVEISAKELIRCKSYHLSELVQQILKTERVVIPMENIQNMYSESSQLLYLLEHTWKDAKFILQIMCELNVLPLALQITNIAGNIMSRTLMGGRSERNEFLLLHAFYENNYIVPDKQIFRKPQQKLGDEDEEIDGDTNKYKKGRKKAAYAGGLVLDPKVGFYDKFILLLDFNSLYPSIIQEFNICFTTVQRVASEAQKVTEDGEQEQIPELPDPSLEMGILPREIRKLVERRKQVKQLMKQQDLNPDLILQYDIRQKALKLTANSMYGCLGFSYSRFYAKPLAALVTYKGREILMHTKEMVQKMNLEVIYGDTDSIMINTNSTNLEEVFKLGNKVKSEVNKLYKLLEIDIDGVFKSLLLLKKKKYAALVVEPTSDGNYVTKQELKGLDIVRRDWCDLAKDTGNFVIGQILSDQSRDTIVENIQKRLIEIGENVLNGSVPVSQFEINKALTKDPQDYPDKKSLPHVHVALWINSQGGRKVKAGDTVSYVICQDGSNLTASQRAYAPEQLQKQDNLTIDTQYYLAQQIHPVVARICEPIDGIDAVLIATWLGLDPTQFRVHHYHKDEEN

B1: RNA-primed DNA template (DNA:RNA)
DNA: ATTACTATAGGCGCTCCAGGC
RNA: GCCUGGAGCGC
modifications: primer strand is RNA with a 3'-terminal dideoxycytidine (ddC)
In the case of B1, the binding result was “binds”.
